Test results from article PMC7919418 (Genes & Development, 2021).

B1: Nxf2[541–841], recombinant (domain or fragment)
chain: LPSEYVRAVKEVFPQLTTLDGVDLQTNPGQSLQKNFLCDTGAYELVGAFLENYLREFENDEFRHNLYKYYSENSIFTLTCNYNVVQNHQTPKILQRLSKYNRHARNLRNKDYSKASDGVFFGCTYIVEILLQLPRVTHDFHSLQTDVMHYNGKGAVIYVAGLLRDEPPSTRNGHGSKTDIGGVLLGFSRQFVVTFDEANLGLGKRARRLKIANERLHITNPSKTAIRNAFSVNFPDPSERQAEEDSLDVKDHKLLLFQEVTGLISTWVTSIVEEADWDFERALKLFIQKNADHEIPDLAFA
B2: His6-Ctp, recombinant, coexpressed in SFiNX complexes (natural protein)
chain: MSDRKAVIKNADMSEEMQQDAVDCATQALEKYNIEKDIAAYIKKEFDKKYNPTWHCIVGRNFGSYVTHETRHFIYFYLGQVAILLFKSG
B3: Panx peptide residues 455–480 (Panx1 + 2) (peptide)
peptide: TLYKNAATQTERRTATRDAGTQVRLE
B4: Panx peptide residues 455–466 (Panx1) (peptide)
peptide: TLYKNAATQTER
B5: Panx[263–541], recombinant, coexpressed in SFiNX[wild type] (domain or fragment)
chain: ASSQNESSKERKLRDTELDYVPVRPDEHFIRPIKFSNLIERRPPQVEFNTVNLSKADKRSLAVARAELVLEQIQQKANKEEPPEFHMVDTICKLPVNESFRNQDCFENPSPICNNMNVVYKFNSTPGTRIDLSKWGLETVPEATKRLLRLLGIDVARLKELQSTVKPSQRILKLKKEQLEQGLAPTEEQETATLYKNAATQTERRTATRDAGTQVRLESKLNGAFWQNPHFDPMNLTQHQSNVMLALQEIYQTLPSATMAVKLSRALAPALAIIKGRQP
B6: Panx peptide residues 467–480 (Panx2) (peptide)
peptide: RTATRDAGTQVRLE

Tests used:
Nxt1, recombinant = Nxt1, recombinant (Drosophila melanogaster, UniProt Q9V3H8 1-133); experiment: SEC-MALS
SEC-MALS = target: the molecule itself; experiment: SEC-MALS
[1] = target: Drosophila melanogaster Ctp (residues 1–89), untagged, coexpressed with Panx peptides (Drosophila melanogaster, UniProt Q24117 1-89); experiment: SEC-MALS
[2] = target: Ctp expressed in isolation with a His6-SUMO tag (for ITC) (Drosophila melanogaster, UniProt Q24117 1-89); experiment: ITC
[3] = target: B1; experiment: SEC-MALS

B1
binding result (Nxt1, recombinant): binds

B2
stoichiometry N (SEC-MALS): 2

B3
stoichiometry N [1]: 1 Panx peptide per Ctp homodimer

B4
stoichiometry N [1]: 2 Panx peptides per Ctp homodimer | Kd [2]: ~75 nM

B5
binding result [3]: binds

B6
stoichiometry N [1]: 2 Panx peptides per Ctp homodimer | Kd [2]: ~140 nM
